Test results published in the supplement of paper PMC9233669.
Variants at the floor of the assay were thinned out.

Columns and labels:
biotinyl-Val-oxazolone = test: self-aminoacylation, catalytic enhancement (BVO) (fold over background); higher = more active; k-Seq, kA / k0A0; sequences stand for … in GGGAAUGGAUCCACAUCUACGAAUUC…UUCACUGCAGACUUGACGAAGCUG
Procedure, shortened: (§1)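 Catalytic enhancement equals the median kA over the uncatalyzed rate, the latter read from the low-activity peak of a bimodal Gaussian fit. Values of kA came from fitting each sequence's fraction reacted to a pseudo-first-order model, with 1000 bootstraps. Reacted RNA was captured with streptavidin and quantified by triplicate qPCR and Illumina sequencing after 90 minutes at room temperature with 2–1250 μM biotinyl-aminoacyl-oxazolone and 0.43 μM mutagenized RNA pools bearing a 21-nt variable region.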

biotinyl-Leu-oxazolone = test: self-aminoacylation, catalytic enhancement (BLO) (fold over background); higher = more active; k-Seq, kA / k0A0; sequences stand for … in GGGAAUGGAUCCACAUCUACGAAUUC…UUCACUGCAGACUUGACGAAGCUG
Procedure, shortened: as §1

biotinyl-Ile-oxazolone = test: self-aminoacylation, catalytic enhancement (BIO) (fold over background); higher = more active; k-Seq, kA / k0A0; sequences stand for … in GGGAAUGGAUCCACAUCUACGAAUUC…UUCACUGCAGACUUGACGAAGCUG
Procedure, shortened: as §1

biotinyl-Trp-oxazolone = test: self-aminoacylation, catalytic enhancement (BWO) (fold over background); higher = more active; k-Seq, kA / k0A0; sequences stand for … in GGGAAUGGAUCCACAUCUACGAAUUC…UUCACUGCAGACUUGACGAAGCUG
Procedure, shortened: as §1

biotinyl-Phe-oxazolone = test: self-aminoacylation, catalytic enhancement (BFO) (fold over background); higher = more active; k-Seq, kA / k0A0; sequences stand for … in GGGAAUGGAUCCACAUCUACGAAUUC…UUCACUGCAGACUUGACGAAGCUG
Procedure, shortened: as §1

biotinyl-Met-oxazolone = test: self-aminoacylation, catalytic enhancement (BMO) (fold over background); higher = more active; k-Seq, kA / k0A0; sequences stand for … in GGGAAUGGAUCCACAUCUACGAAUUC…UUCACUGCAGACUUGACGAAGCUG
Procedure, shortened: as §1

| Sequence | self-aminoacylation (biotinyl-Val-oxazolone) | self-aminoacylation (biotinyl-Leu-oxazolone) | self-aminoacylation (biotinyl-Ile-oxazolone) | self-aminoacylation (biotinyl-Trp-oxazolone) | self-aminoacylation (biotinyl-Phe-oxazolone) | self-aminoacylation (biotinyl-Met-oxazolone) |
| --- | --- | --- | --- | --- | --- | --- |
| AAGUUAGCUCAUAGUCGCAAG [Fam3.1 aminoacylation ribozyme variant] | 1.61 | 2.45 | 1.85 | 1.81 | 3.16 | 1.88 |
| AAGUUCCCUAAUAGUCGCAAG [Fam3.1 aminoacylation ribozyme variant] | 0.992 | 0.965 | 1.12 | 0.613 | 0.485 | 0.931 |
| AAGUUCGCUAAAAGUCGCAAG [Fam3.1 aminoacylation ribozyme variant] | 1.67 | 2.68 | 2.42 | 3.39 | 4.4 | 2.51 |
| AAGUUCGCUAAUAGGCGCAAG [Fam3.1 aminoacylation ribozyme variant] | 1.16 | 1.03 | 1.23 | 1.2 | 1.58 | 0.965 |
| AAGUUCGCUAAUAGUAGCAAG [Fam3.1 aminoacylation ribozyme variant] | 1.26 | 1.28 | 1.67 | 1.24 | 3.5 | 1.55 |
| AAGUUCGCUAAUAGUCGCAAG [Fam3.1 aminoacylation ribozyme variant] | 1.81 | 1.94 | 2.04 | 2.94 | 6.36 | 1.91 |
| AAGUUCGCUAAUAGUCGCAGG [Fam3.1 aminoacylation ribozyme variant] | 1.89 | 3.87 | 2.54 | 2.2 | 2.51 | 2.87 |
| AAGUUCGCUAAUAGUCGGAAG [Fam3.1 aminoacylation ribozyme variant] | 0.743 | 1.17 | 1.2 | 1.07 | 2.48 | 0.621 |
| AAGUUCGCUACUAGUCGCAAG [Fam3.1 aminoacylation ribozyme variant] | 1.79 | 1.5 | 2.08 | 1.34 | 2.28 | 1.67 |
| AAGUUCGCUUAUAGUCGCAAG [Fam3.1 aminoacylation ribozyme variant] | 1.5 | 1.84 | 1.86 | 2.23 | 1.99 | 2.03 |
| AAGUUCGUUAAUAGUCGCAAG [Fam3.1 aminoacylation ribozyme variant] | 1.53 | 1.94 | 1.93 | 1.56 | 3.09 | 1.77 |
| AAGUUGACUAAUAGUCGCAAG [Fam3.1 aminoacylation ribozyme variant] | 0.949 | 0.935 | 1.18 | 1.19 | 1.5 | 0.839 |
| AAGUUGGCUAAGAGUCGCAAG [Fam3.1 aminoacylation ribozyme variant] | 1.53 | 1.98 | 2.02 | 2.13 | 1.91 | 1.68 |
| AAGUUGGCUAAUACUCGCAAG [Fam3.1 aminoacylation ribozyme variant] | 1.39 | 0.979 | 1.39 | 1.45 | 1.44 | 1.2 |
| AAGUUGGCUAAUAGUGGCAAG [Fam3.1 aminoacylation ribozyme variant] | 0.731 | 0.655 | 0.654 | 1.13 | 0.667 | 0.931 |
| AAGUUGGCUAAUCGUCGCAAG [Fam3.1 aminoacylation ribozyme variant] | 1.51 | 1.75 | 1.76 | 2.24 | 2.73 | 1.68 |
| AAGUUGGCUGAUAGUCGCAAG [Fam3.1 aminoacylation ribozyme variant] | 1.7 | 1.55 | 1.8 | 1.86 | 2.34 | 1.49 |
| AAGUUGGCUUAUAGUCGCAAG [Fam3.1 aminoacylation ribozyme variant] | 1.61 | 1.64 | 1.59 | 1.7 | 2.35 | 1.94 |
| AAGUUGGUUAAUAGUCGCAAG [Fam3.1 aminoacylation ribozyme variant] | 1.24 | 1.46 | 1.4 | 1.81 | 1.87 | 1.42 |
| AAGUUUACUAACAGUCGCAAG [Fam3.1 aminoacylation ribozyme variant] | 1.63 | 1.95 | 1.58 | 1.38 | 2.91 | 1.48 |
| AAGUUUACUAAUAGACGCAAG [Fam3.1 aminoacylation ribozyme variant] | 1.03 | 0.638 | 0.695 | 0.834 | 1.15 | 0.816 |
| AAGUUUACUAUUAGUCGCAAG [Fam3.1 aminoacylation ribozyme variant] | 1.76 | 1.49 | 1.83 | 2.02 | 2.72 | 1.59 |
| AAGUUUCCUAAGAGUCGCAAG [Fam3.1 aminoacylation ribozyme variant] | 1.31 | 1.24 | 1.29 | 0.936 | 1.17 | 1.04 |
| AAGUUUCCUAAUAGACGCAAG [Fam3.1 aminoacylation ribozyme variant] | 0.805 | 0.671 | 0.82 | 0.895 | 1.32 | 0.632 |
| AAGUUUCCUAAUAGUCGCAAC [Fam3.1 aminoacylation ribozyme variant] | 1.31 | 1.5 | 1.59 | 2.18 | 2.42 | 1.73 |
| AAGUUUCCUAAUAGUCGCUAG [Fam3.1 aminoacylation ribozyme variant] | 1.67 | 1.39 | 1.61 | 1.97 | 2.18 | 1.78 |
